From patent US20130064817A1 (Merck Sharp & Dohme, published 2013) come the findings set out here.

A word on the Kd: it is a measure of binding affinity in units of concentration. High values mean lower affinity, low ones higher affinity.

Experiment [1] has as its target T1, human IL-23R on human cells (primary splenocytes; KIT225 cells) (human, UniProt Q5VWK5 24-629).
T1 sequence: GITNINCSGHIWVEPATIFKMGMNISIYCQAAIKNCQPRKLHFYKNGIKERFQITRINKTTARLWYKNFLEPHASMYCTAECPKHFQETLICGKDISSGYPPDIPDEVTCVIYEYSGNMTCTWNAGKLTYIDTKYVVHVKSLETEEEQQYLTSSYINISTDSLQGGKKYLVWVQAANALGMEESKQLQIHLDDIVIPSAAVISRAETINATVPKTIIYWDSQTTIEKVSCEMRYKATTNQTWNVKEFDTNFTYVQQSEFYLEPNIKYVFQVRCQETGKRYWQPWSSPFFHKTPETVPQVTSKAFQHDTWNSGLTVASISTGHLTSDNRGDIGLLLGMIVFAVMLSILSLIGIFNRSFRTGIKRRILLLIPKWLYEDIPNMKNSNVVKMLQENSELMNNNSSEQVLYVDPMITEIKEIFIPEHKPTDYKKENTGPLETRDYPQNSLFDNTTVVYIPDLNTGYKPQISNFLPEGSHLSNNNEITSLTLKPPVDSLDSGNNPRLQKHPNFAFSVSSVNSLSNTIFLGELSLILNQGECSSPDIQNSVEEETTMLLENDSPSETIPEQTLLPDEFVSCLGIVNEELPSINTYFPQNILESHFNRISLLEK
The experiment is described as follows: cell-based or functional assay.

The target in experiment [2] is T2, human IL-23R (human, UniProt Q5VWK5 24-353, limits assumed).
T2 construct: KinExA particles are coated with biotinylated IL-23R 'or a fragment thereof, such as the extracellular domain'; also called huIL-23R; hIL-23R
T2 sequence: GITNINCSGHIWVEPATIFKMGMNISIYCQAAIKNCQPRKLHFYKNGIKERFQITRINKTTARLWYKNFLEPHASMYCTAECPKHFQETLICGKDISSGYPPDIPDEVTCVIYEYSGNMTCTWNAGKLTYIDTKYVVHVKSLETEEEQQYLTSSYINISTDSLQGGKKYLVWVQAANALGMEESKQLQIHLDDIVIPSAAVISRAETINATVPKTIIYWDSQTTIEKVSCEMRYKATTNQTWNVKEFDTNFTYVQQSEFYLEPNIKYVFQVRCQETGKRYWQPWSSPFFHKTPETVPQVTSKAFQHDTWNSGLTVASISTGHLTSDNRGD
The experiment is described as follows: BIAcore, essentially as in Example 4. How it is done:
(§1) BIAcore® label-free interaction analysis system determinations are performed essentially as described at Example 4 of U.S. Patent Application Publication No. 2007/0048315. Briefly, ligands (anti-IL-23R mAbs) are immobilized on a BIAcore® label-free interaction analysis system CM5 sensor chip using standard amine-coupling procedure. Kinetic constants for the various interactions are determined using BIAevaluation software 3.1. The Kd is determined using the calculated dissociation and association rate constants.
For orientation: SPR reads the build-up and loss of mass on a sensor chip optically.

Experiment [3] concerns the target T2, human IL-23R. Put plainly: KinExA. How it is done:
The equilibrium dissociation constants (Kd) for anti human IL-23R antibodies are determined using the KinExA 3000 instrument. Sapidyne Instruments Inc., Boise Id., USA KinExA uses the principle of the Kinetic Exclusion Assay method based on measuring the concentration of uncomplexed antibody in a mixture of antibody, antigen and antibody-antigen complex. The concentration of free antibody is measured by exposing the mixture to a solid-phase immobilized antigen for a very brief period of time. In practice, this is accomplished by flowing the solution phase antigen-antibody mixture past antigen-coated particles trapped in a flow cell. Data generated by the instrument are analyzed using custom software. Equilibrium constants are calculated using a mathematical theory based on the following assumptions:
PMMA particles (Sapidyne, Cat No. 440198) are coated with biotinylated IL-23R (or a fragment thereof, such as the extracellular domain) according to Sapidyne “Protocol for coating PMMA particles with biotinylated ligands having short or nonexistent linker arms.” EZ-link TFP PEO-biotin (Pierce, Cat. No. 21219) is used to make biotinylated IL-23R, as per the manufacturer's recommendations (Pierce bulletin 0874).

The target in experiment [4] is T2, human IL-23R. Put plainly: BIAcore, antibody immobilized on CM5 chip. How it is done:
as §1

B1: humanized anti-IL-23R antibody hum20D7 (heavy chain hu20D7-c, light chain hu20D7-II-b) (antibody, human IgG1, kappa, V domains shown)
VH: QVQLVQSGAEVKKPGASVKVSCKASGYTFTNYAMNWVRQAPGQGLEWMGWINTYTGEPTYSDDFKGRVTFTLDTSTSTAYMELRSLRSDDTAVYYCARGGGYDEDYFDYWGQGTLVTVSS
VL: DIVMTQSPLSLPVTPGEPASISCKSSQSLFNTINQKTYLAWYLQKPGQSPQLLIYFASTRESGVPDRFSGSGSGTDFTLKISRVEAEDVGVYYCQQHYDTPWTFGQGTKVEIKR
For B1, in experiment [1], the “IC50, IFN-γ production by human primary splenocytes exposed to human IL-23 (170 pM)” value is 34 pM and the “IC50, STAT3 phosphorylation in KIT225 cells stimulated with 138 pM human IL-23” value worked out at 34 pM. The Kd in experiment [2] worked out at 0.131 nM.

B2: rat anti-human IL-23R antibody 8B10 (antibody, rat IgG2a, V domains shown)
VH: EVKLVESGGGLEQPKGSLKLSCTVSGFDFNSYGMSWVRQAPGKGLDLVADINSKSYNYATYYADSVKDRFTISRDDSQSMVYLEMDNLKTEDTALYYCTVHHSDYFEYWGQGVMVTVSS
VL: DIQMTQSPASLSASLGETVSIECLASEDIYNNLAWYQQKPGKSPQLLIYHASSLQDGVPSRFSGSGSGTQYSLKINSLESEDAATYFCLQDSEYPPTFGGGTKLELKR
notes: also called r8B10; parental rat 8B10 antibody
Regarding B2, the figures for the Kd in experiment [3] and in experiment [4] were 0.042 nM and around 0.3 nM, respectively.

B3: mouse anti-human IL-23R antibody 20D7 (antibody, mouse IgG1, V domains shown)
VH: QIQLVQSGPELKKPGETVKISCKASGYTFTNYAMNWVKQAPGKGLKWMGWINTYTGEPTYSDDFKGRFAFSLETSANTAYLQINNLKNEDTAAYFCTRGGGYDEDYFDYWGQGTTLTVSS
VL: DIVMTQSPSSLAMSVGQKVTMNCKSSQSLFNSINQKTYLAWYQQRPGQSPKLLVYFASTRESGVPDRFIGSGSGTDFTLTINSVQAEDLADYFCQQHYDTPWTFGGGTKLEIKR
notes: also called m20D7; mouse 20D7 antibody
Consider B3, for which the values for the Kd in experiment [3] and in experiment [4] were 0.009 nM and around 0.085 nM, respectively.
